These results are taken from paper PMC3890319, “Role of Receptor Activity Modifying Protein 1 in Function of the Calcium Sensing Receptor in the Human TT Thyroid Carcinoma Cell Line” (PLoS ONE, 2014).

In this assay the target is T1, Calcium Sensing Receptor, C-terminal Citrine fusion (UniProt P41180 20-1078).
T1 construct: Calcium Sensing Receptor (CaSR); cDNA cloned without its stop codon between HindIII and Not1 of pcDNA3.1-Citrine; Acceptor of the FRET pair; it says only that the cDNA was cloned excluding the stop codon; also called CaSR; CaSR-citrine; source: COS-7, transfected by electroporation (pcDNA3.1), in fixed cells; not shown: Citrine, C-terminal, kept
T1 sequence (looked up): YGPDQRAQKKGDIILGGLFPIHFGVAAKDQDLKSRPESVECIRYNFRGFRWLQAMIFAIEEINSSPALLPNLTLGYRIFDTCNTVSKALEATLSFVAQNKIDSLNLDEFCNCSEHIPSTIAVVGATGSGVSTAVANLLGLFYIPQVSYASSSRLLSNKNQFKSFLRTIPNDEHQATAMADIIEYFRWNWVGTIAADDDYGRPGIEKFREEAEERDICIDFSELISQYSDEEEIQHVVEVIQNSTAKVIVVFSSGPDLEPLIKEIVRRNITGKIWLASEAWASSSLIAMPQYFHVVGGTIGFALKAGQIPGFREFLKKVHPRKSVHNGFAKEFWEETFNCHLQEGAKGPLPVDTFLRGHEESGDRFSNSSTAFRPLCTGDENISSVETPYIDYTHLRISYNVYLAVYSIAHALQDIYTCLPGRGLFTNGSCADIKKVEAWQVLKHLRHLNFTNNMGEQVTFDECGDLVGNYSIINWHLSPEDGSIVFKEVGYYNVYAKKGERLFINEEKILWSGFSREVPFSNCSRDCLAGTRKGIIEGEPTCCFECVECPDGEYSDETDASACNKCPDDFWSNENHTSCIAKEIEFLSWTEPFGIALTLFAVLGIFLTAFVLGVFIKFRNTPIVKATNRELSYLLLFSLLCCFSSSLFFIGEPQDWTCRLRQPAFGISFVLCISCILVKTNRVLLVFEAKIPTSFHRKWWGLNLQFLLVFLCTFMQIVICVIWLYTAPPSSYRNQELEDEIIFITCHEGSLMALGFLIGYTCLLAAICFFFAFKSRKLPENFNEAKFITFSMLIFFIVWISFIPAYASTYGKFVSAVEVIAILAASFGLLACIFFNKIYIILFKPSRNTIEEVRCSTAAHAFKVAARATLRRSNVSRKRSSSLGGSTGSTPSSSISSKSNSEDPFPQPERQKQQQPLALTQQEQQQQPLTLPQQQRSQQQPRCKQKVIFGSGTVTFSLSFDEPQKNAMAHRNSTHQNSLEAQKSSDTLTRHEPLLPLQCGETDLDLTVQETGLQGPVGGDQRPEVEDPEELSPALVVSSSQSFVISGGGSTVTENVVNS
Kind of assay: FRET or BRET; sensitized-emission FRET (NFRET, PixFRET) and FRET-based stoichiometry in cell-surface regions of interest (50-pixel dots) of fixed COS-7 cells co-transfected with CaSR-Citrine (acceptor) and RAMP-Cerulean (donor); confocal microscopy at room temperature; NFRET as percent of a Cerulean-linker-Citrine positive control; negative control Citrine alone + RAMP-Cerulean. Conditions: partners not purified. In general terms: BRET reads energy transfer from a luciferase to a nearby fluorophore.

B1: Receptor Activity Modifying Protein 1, C-terminal Cerulean fusion (natural protein, UniProt O60894 27-148, looked up)
chain: CQEANYGALLRELCLTQFQVDMEAVGETLWCDWGRTIRSYRELADCTWHMAEKLGCFWPNAEVDRFFLAVHGRYFRSCPISGRAVRDPPGSILYPFIVVPITVTLLVTALVVWQSKRTEGIV
notes: Receptor Activity Modifying Protein 1 (RAMP1); cDNA cloned without its stop codon between Kpn1 and Not1 of pcDNA3.1-Cerulean; Donor of the FRET pair; also called RAMP1; RAMP1-Cer; source: COS-7, transfected by electroporation (pcDNA3.1), in fixed cells; not shown: Cerulean, C-terminal, kept
For B1, the “stoichiometry N” value was 2.19 CaSR:RAMP.

B2: Receptor Activity Modifying Protein 3, C-terminal Cerulean fusion (natural protein, UniProt O60896 24-148, looked up)
chain: RAGGCNETGMLERLPLCGKAFADMMGKVDVWKWCNLSEFIVYYESFTNCTEMEANVVGCYWPNPLAQGFITGIHRQFFSNCTVDRVHLEDPPDEVLIPLIVIPVVLTVAMAGLVVWRSKRTDTLL
notes: Receptor Activity Modifying Protein 3 (RAMP3); cDNA cloned without its stop codon between Kpn1 and Not1 of pcDNA3.1-Cerulean; Donor of the FRET pair; also called RAMP3; RAMP3-Cer; source: COS-7, transfected by electroporation (pcDNA3.1), in fixed cells; not shown: Cerulean, C-terminal, kept
On to B2, for which the “stoichiometry N” value was 1.5 CaSR:RAMP.
